Paper doi:10.1101/2024.04.24.591037

Columns and labels:
[1] = biological target: Kluyveromyces marxianus GCN2 HRSL domain (residues 996-1511) (Kluyveromyces marxianus); assay: SEC
[2] = biological target: ΔN-terminal GCN2 HRSL, mutant Δ(V996-N1009) of Kluyveromyces marxianus GCN2 HRSL (Kluyveromyces marxianus); assay: SEC

Row | Substance | stoichiometry N [1] | stoichiometry N [2]
1 | Kluyveromyces marxianus GCN2 HRSL domain (residues 996-1511) (domain or fragment) | 2 | –
2 | ΔN-terminal GCN2 HRSL, mutant Δ(V996-N1009) of Kluyveromyces marxianus GCN2 HRSL (domain or fragment) | – | 2
